Our source for the % of cells in the PE gate values is US20210214410A1 (Stanford University, published 2021).

In experiment [1] the target is human interleukin 13 receptor alpha 2 (IL-13Rα2), biotinylated (human) (UniProt Q14627). In words: flow cytometry, PE-labelled mouse IgG1, live SKOV3 cells. (In general: Flow cytometry measures light scatter and fluorescence of single cells or particles in a stream.)
Experiment [2] shares this target. In words: flow cytometry, PE-labelled mouse IgG1, live U87 cells.

Turning to Isotype Control (antibody), the % of cells in the PE gate in experiment [1] was 0.042%; in experiment [2], 0.035%.
